This is an account of results in patent publication US20100190202A1, “NOVEL POPULATION OF HEPATOCYTES DERIVED VIA DEFINITIVE ENDODERM (DE-HEP) FROM HUMAN BLASTOCYSTS STEM CELLS” (Cellartis AB, priority 2007, published 2010).

Assay [1] has as its system hESC line SA002. Put plainly: Real-time PCR after exposure to activin A or activin B. In kind it is cell-based, human. Conditions: 100 ng/ml, 5 ng/ml bFGF, 5 days. The protocol:
Undifferentiated hESC line SA002 were exposed to either activin A (100 ng/ml) or activin B (100 ng/ml) in the presence of 5 ng/ml bFGF for 5 days and analyzed for gene expression.
mRNA expression of Foxa2, Sox17, CXCR4, Sox7, CDX2, AAT was measured by real-time PCR using the ABI/TaqMan method. In short, RNA was isolated from the cell cultures by using Qiagen's RNeasy system. cDNA was synthesized by using the ABI high capacity cDNA synthesis kit. RT-PCR was performed in a ABI 7500 by using TaqMan probe. The expression level was normalized to CREBBP expression.
Background: In qPCR the cycle at which signal appears reflects the starting amount.

For assay [2], the system named is hBS cells. Put plainly: Sox17/Sox7 immunostaining of Activin A treated hBS cell cultures. In kind it is cell-based, human. To be noted: after 4 days in Activin A; of the remaining cells. The source says:
We used Activin A, and Activin A in combination with Wnt3a and/or FGF2 to generate DE. After 4 to 5 days in Stage I the hBS cell colony differentiated and genetic markers for early DE were examined using quantitative real-time real time-PCR (Q-PCR). Activin A induced a strong wave of early endoderm at day 3 to 5, and was highlighted by high expression levels of Sox17, HNF3beta (HNF3b or HNF3b) and Cxcr4 expression (FIG. 4) and then reduced to near baseline levels (data not shown). […] Furthermore they up regulate early liver markers like AFP or AAT. At this early stage in differentiation and development, this indicates the presence of extraembryonic endoderm (ExE) in intrinsically differentiating colonies (FIGS. 5 and 10). The expression data were confirmed by co-staining of Sox17/Sox7, Sox17/Cxcr4, Sox17/Oct4, Sox7/HNF3b (data not shown). […] The changes of gene expression after Activin A treatment were associated to morphological changes and distinct differentiation pattern of the colonies (FIG. 2). After 4 to 5 days induction with Activin A containing medium cells gathered together and formed a ring of epithelial cells around the colony. […]
Activin A induces definitive endoderm detected by a combination of Sox17+/Sox7−, 80-90% of the total cells in a Activin A or Activin A/FGF2 treated culture are estimated to be Sox17 positive and negative for Sox7 (manual counting in microscope). […]

B1: activin B: activin B, 100 ng/ml, substituted for activin A for induction of endoderm (protein, UniProt P09529 293-407, looked up)
Inhibin beta B chain: GLECDGRTNLCCRQQFFIDFRLIGWNDWIIAPTGYYGNYCEGSCPAYLAGVPGSASSFHTAVVNQYRMRGLNPGTVNSCCIPTKLSTMSMLYFDDEYNIVKRDVPNMIVEECGCA
modifications: Inhibin beta B chain
With B1, in assay [1], the “mRNA expression of endodermal markers Foxa2, Sox17 and CXCR4 compared to activin A” value is “either the same or even higher”; the “mRNA expression of extraembryonal markers Sox7, CDX2 and AAT compared to activin A” value is “the same or lower”.

B2: Activin A: TGF-beta family member used at 100 ng/ml to induce definitive endoderm (protein, UniProt P08476 311-426, looked up)
Inhibin beta A chain: GLECDGKVNICCKKQFFVSFKDIGWNDWIIAPSGYHANYCEGECPSHIAGTSGSSLSFHSTVINHYRMRGHSPFANLKSCCVPTKLRPMSMLYYDDGQNIIKKDIQNMIVEECGCS
modifications: Inhibin beta A chain
notes: TGF-beta family member used at 100 ng/ml to induce definitive endoderm
Consider B2, for which, in assay [2], the Sox17 positive cells result was “more than 70%”.
